{"source": "patent US20150100046A1", "about": "“INTRAOCULAR DRUG DELIVERY DEVICE AND ASSOCIATED METHODS” (priority 2013, published 2015)", "test": "Ocular tissue drug concentration by ELISA after implantation of loaded intraocular device", "format": "in vivo, New Zealand white rabbits", "settings": "intraocular device loaded with Avastin implanted in lens capsule after lens extraction, 1 week post implantation", "description": "Three intraocular devices were implanted into eyes of New Zealand white rabbits under general anesthesia after lens extraction (phacoemulsification technique). Two of the devices were loaded with Avastin® (bevacizumab) and one was loaded with the contrast agent gadolinium-labeled albumin (Galbumin™) as a control. Proper intraocular device position was verified by MRI as well as clinical examination.\nThe rabbits were sacrificed and the eyes are removed and assayed after 1 week post implantation. Bevacizumab (Avastin®) was detected by ELISA in the retina and vitreous at concentrations of 24-48 mcg/mL, and was not present in the control rabbit eye."}
{"substance": "bevacizumab [Bevacizumab (Avastin®)]", "values": [{"measurement": "concentration detected by ELISA in the retina and vitreous", "value": "24000 to 48000", "unit": "ng/mL"}]}
